# Patent US20250243277A1 (AVACTA LIFE SCIENCES, published 2025)
# Changes are numbered by the printed parent chain.
# B1: Clone 153 (designed binder)
# chain: MIPGGLSEAKPATPEIQEIVDKVKPQLEEKTGETYGKLEAVQYKTQVVYPWSWNGHYGTNYYIKVRAGDNKYMHLKVFKSLIKYPFARAEEDLVLTGYQVDKNKDDELTGF
# notes: His-tagged
# B2: Clone 223 (designed binder)
# chain: MIPGGLSEAKPATPEIQEIVDKVKPQLEEKTGETYGKLEAVQYKTQVVFPWDQENYYGTNYYIKVRAGDNKYMHLKVFKSLIKEPFIKNVEDLVLTGYQVDKNKDDELTGF
# notes: His-tagged
# B3: Clone 169 (designed binder)
# chain: MIPGGLSEAKPATPEIQEIVDKVKPQLEEKTGETYGKLEAVQYKTQVVYANIGPWLYGTNYYIKVRAGDNKYMHLKVFKSLFKHRQQLHYTEDLVLTGYQVDKNKDDELTGF
# notes: His-tagged
# B4: Clone 147 (designed binder)
# chain: MIPGGLSEAKPATPEIQEIVDKVKPQLEEKTGETYGKLEAVQYKTQVVVHITVEWEGTNYYIKVRAGDNKYMHLKVFKSLIYQRHTQSREDLVLTGYQVDKNKDDELTGF
# notes: His-tagged
# B5: Clone 152 (designed binder)
# chain: MIPGGLSEAKPATPEIQEIVDKVKPQLEEKTGETYGKLEAVQYKTQVVRAQLRPWVAGTNYYIKVRAGDNKYMHLKVFKSLGWNEEARPPEDLVLTGYQVDKNKDDELTGF
# notes: His-tagged
# B6: Clone 173 (designed binder)
# chain: MIPGGLSEAKPATPEIQEIVDKVKPQLEEKTGETYGKLEAVQYKTQVVDWPSHAKFWGTNYYIKVRAGDNKYMHLKVFKSLFLPDKDDPFEDLVLTGYQVDKNKDDELTGF
# notes: His-tagged
# B7: Clone 17 (designed binder)
# chain: MIPGGLSEAKPATPEIQEIVDKVKPQLEEKTGETYGKLEAVQYKTQVVIVYTIWNYVGTNYYIKVRAGDNKYMHLKVFKSLTPQTETEHEEDLVLTGYQVDKNKDDELTGF
# notes: His-tagged
# B8: Clone 177 (designed binder)
# chain: MIPGGLSEAKPATPEIQEIVDKVKPQLEEKTGETYGKLEAVQYKTQVVISEDSWWPHGTNYYIKVRAGDNKYMHLKVFKSLNWFHQPWQREDLVLTGYQVDKNKDDELTGF
# notes: His-tagged
# B9: Clone 192 (designed binder)
# chain: MIPGGLSEAKPATPEIQEIVDKVKPQLEEKTGETYGKLEAVQYKTQVVTENNSWWPIGTNYYIKVRAGDNKYMHLKVFKSLNWFSDEAPYEDLVLTGYQVDKNKDDELTGF
# notes: His-tagged
# B10: Clone 163 (designed binder)
# chain: MIPGGLSEAKPATPEIQEIVDKVKPQLEEKTGETYGKLEAVQYKTQVVISASEIRWYGTNYYIKVRAGDNKYMHLKVFKSLKAFANDYYKEDLVLTGYQVDKNKDDELTGF
# notes: His-tagged
# B11: Clone 160 (designed binder)
# chain: MIPGGLSEAKPATPEIQEIVDKVKPQLEEKTGETYGKLEAVQYKTQVVGPWYFGSAWGTNYYIKVRAGDNKYMHLKVFKSLWENFHKLEKEDLVLTGYQVDKNKDDELTGF
# notes: His-tagged
# B12: Clone 157 (designed binder)
# chain: MIPGGLSEAKPATPEIQEIVDKVKPQLEEKTGETYGKLEAVQYKTQVVIYYPIWDFHGTNYYIKVRAGDNKYMHLKVFKSLFWGDLKTEDLVLTGYQVDKNKDDELTGF
# notes: His-tagged
# B13: Clone 171 (designed binder)
# chain: MIPGGLSEAKPATPEIQEIVDKVKPQLEEKTGETYGKLEAVQYKTQVVIDHQNHPTEGTNYYIKVRAGDNKYMHLKVFKSLWPWLHSTEQEDLVLTGYQVDKNKDDELTGF
# notes: His-tagged
# B14: Clone 18 (designed binder)
# chain: MIPGGLSEAKPATPEIQEIVDKVKPQLEEKTGETYGKLEAVQYKTQVVEAHQDLHFWGTNYYIKVRAGDNKYMHLKVFKSLLTEHNKKHQERHLDHEDLVLTGYQVDKNKDDELTGF
# notes: His-tagged
# B15: Clone 145 (designed binder)
# chain: MIPGGLSEAKPATPEIQEIVDKVKPQLEEKTGETYGKLEAVQYKTQVVYKNVGPWVNGTNYYIKVRAGDNKYMHLKVFKSLYRTNRGHEREDLVLTGYQVDKNKDDELTGF
# notes: His-tagged
# B16: Clone 155 (designed binder)
# chain: MIPGGLSEAKPATPEIQEIVDKVKPQLEEKTGETYGKLEAVQYKTQVVWRTGQKWQVGTNYYIKVRAGDNKYMHLKVFKSLAGHYEVHIGEDLVLTGYQVDKNKDDELTGF
# notes: His-tagged
# B17: Clone 150 (designed binder)
# chain: MIPGGLSEAKPATPEIQEIVDKVKPQLEEKTGETYGKLEAVQYKTQVVREVGLWRFQGTNYYIKVRAGDNKYMHLKVFKSLYIGYAGDAQEDLVLTGYQVDKNKDDELTGF
# notes: His-tagged
# B18: Clone 159 (designed binder)
# chain: MIPGGLSEAKPATPEIQEIVDKVKPQLEEKTGETYGKLEAVQYKTQVVHVHWAWNYLGTNYYIKVRAGDNKYMHLKVFKSLRNFYTFPHEEDLVLTGYQVDKNKDDELTGF
# notes: His-tagged
# B19: Clone 172 (designed binder)
# chain: MIPGGLSEAKPATPEIQEIVDKVKPQLEEKTGETYGKLEAVQYKTQVVSVFQYTYKFGTNYYIKVRAGDNKYMHLKVFKSLNNKPPHNDLEDLVLTGYQVDKNKDDELTGF
# notes: His-tagged
# B20: Clone 146 (designed binder)
# chain: MIPGGLSEAKPATPEIQEIVDKVKPQLEEKTGETYGKLEAVQYKTQVVSKRSAWHWTGTNYYIKVRAGDNKYMHLKVFKSLFWNAPDDRQEDLVLTGYQVDKNKDDELTGF
# notes: His-tagged
# B21: Clone 180 (designed binder)
# chain: MIPGGLSEAKPATPEIQEIVDKVKPQLEEKTGETYGKLEAVQYKTQVVLQGSRLPIEGTNYYIKVRAGDNKYMHLKVFKSLGWHNVTLPPEDLVLTGYQVDKNKDDELTGF
# notes: His-tagged
# B22: Clone 178 (designed binder)
# chain: MIPGGLSEAKPATPEIQEIVDKVKPQLEEKTGETYGKLEAVQYKTQVVDHLPHAKYWGTNYYIKVRAGDNKYMHLKVFKSLWYQPRWKVEEDLVLTGYQVDKNKDDELTGF
# notes: His-tagged
# B23: Clone 151 (designed binder)
# chain: MIPGGLSEAKPATPEIQEIVDKVKPQLEEKTGETYGKLEAVQYKTQVVWEEVNWRNWGTNYYIKVRAGDNKYMHLKVFKSLVPIHDHLRNEDLVLTGYQVDKNKDDELTGF
# notes: His-tagged
# B24: Clone 167 (designed binder)
# chain: MIPGGLSEAKPATPEIQEIVDKVKPQLEEKTGETYGKLEAVQYKTQVVYRNKQWYNEGTNYYIKVRAGDNKYMHLKVFKSLKIGYLEFVLEDLVLTGYQVDKNKDDELTGF
# notes: His-tagged
# B25: Clone 208 (designed binder)
# chain: B24 chain with Y49Q, R50W, N51K, Q53T, W54Q, N56F, E57F, K82R, V89E, L90I
# notes: His-tagged
# B26: Clone 49 (designed binder)
# chain: MIPGGLSEAKPATPEIQEIVDKVKPQLEEKTGETYGKLEAVQYKTQVVKYYAIFDYKGTNYYIKVRAGDNKYMHLKVFKSLFKEKVRNSIEDLVLTGYQVDKNKDDELTGF
# notes: His-tagged
# B27: Clone 81 (designed binder)
# chain: MIPGGLSEAKPATPEIQEIVDKVKPQLEEKTGETYGKLEAVQYKTQVVKAYVIWSYKGTNYYIKVRAGDNKYMHLKVFKSLFYGEPRGKGEDLVLTGYQVDKNKDDELTGF
# notes: His-tagged
# B28: Clone 68 (designed binder)
# chain: MIPGGLSEAKPATPEIQEIVDKVKPQLEEKTGETYGKLEAVQYKTQVVRVQGLWNFQGTNYYIKVRAGDNKYMHLKVFKSLGHHGDHEKWEDLVLTGYQVDKNKDDELTGF
# notes: His-tagged
# B29: Clone 164 (designed binder)
# chain: B28 chain with V50I, Q51W, L53F, N55A, H84E, G85S, D86G, H87Q, E88N, K89L
# notes: His-tagged
# B30: Clone 166 (designed binder)
# chain: MIPGGLSEAKPATPEIQEIVDKVKPQLEEKTGETYGKLEAVQYKTQVVVAGLKWHWEGTNYYIKVRAGDNKYMHLKVFKSLIYASQYDYREDLVLTGYQVDKNKDDELTGF
# notes: His-tagged
# B31: Clone 156 (designed binder)
# chain: MIPGGLSEAKPATPEIQEIVDKVKPQLEEKTGETYGKLEAVQYKTQVVIQQLYKQTWGTNYYIKVRAGDNKYMHLKVFKSLDYQHWPYDFEDLVLTGYQVDKNKDDELTGF
# notes: His-tagged
# B32: Clone 148 (designed binder)
# chain: MIPGGLSEAKPATPEIQEIVDKVKPQLEEKTGETYGKLEAVQYKTQVVRDYDPFPYTGTNYYIKVRAGDNKYMHLKVFKSLWRGPGPYAIEDLVLTGYQVDKNKDDELTGF
# notes: His-tagged
# B33: Clone 158 (designed binder)
# chain: MIPGGLSEAKPATPEIQEIVDKVKPQLEEKTGETYGKLEAVQYKTQVVDNVANIVPHGTNYYIKVRAGDNKYMHLKVFKSLGWNYEHKWPEDLVLTGYQVDKNKDDELTGF
# notes: His-tagged
# B34: Clone 170 (designed binder)
# chain: MIPGGLSEAKPATPEIQEIVDKVKPQLEEKTGETYGKLEAVQYKTQVVHQFQEIKWFGTNYYIKVRAGDNKYMHLKVFKSLFHRTPGSTTEDLVLTGYQVDKNKDDELTGF
# notes: His-tagged
# B35: Clone 165 (designed binder)
# chain: MIPGGLSEAKPATPEIQEIVDKVKPQLEEKTGETYGKLEAVQYKTQVVNEAESSRFLGTNYYIKVRAGDNKYMHLKVFKSLHDFTLKWKFEDLVLTGYQVDKNKDDELTGF
# notes: His-tagged
# Target: T1, human PD-L1-Fc (R&D Systems) (human, UniProt Q9NZQ7 19-239)
# T1 construct: Bought from R&D Systems; Biotinylated in-house for the phage selection; also called huPD-L1-Fc; human PD-L1-Fc antigen; not shown: Fc part of the bought fusion
# T1 sequence (Q9NZQ7 19-239 limits assumed): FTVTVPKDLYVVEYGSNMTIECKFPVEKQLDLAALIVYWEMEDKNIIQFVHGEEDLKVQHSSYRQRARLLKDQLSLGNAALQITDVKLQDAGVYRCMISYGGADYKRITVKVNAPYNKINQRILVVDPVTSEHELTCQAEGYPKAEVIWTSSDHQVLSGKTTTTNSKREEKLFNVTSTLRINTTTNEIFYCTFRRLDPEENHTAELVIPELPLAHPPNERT
# Assay: soluble Affimer ELISA
row,binding result,Binder
1,binds,B1
2,binds,B2
3,binds,B3
4,binds,B4
5,binds,B5
6,binds,B6
7,binds,B7
8,binds,B8
9,binds,B9
10,binds,B10
11,binds,B11
12,binds,B12
13,binds,B13
14,binds,B14
15,binds,B15
16,binds,B16
17,binds,B17
18,binds,B18

row,binding result,Binder
1,binds,B19
2,binds,B20
3,binds,B21
4,binds,B22
5,binds,B23
6,binds,B24
7,binds,B25
8,binds,B26
9,binds,B27
10,binds,B28
11,binds,B29
12,binds,B30
13,binds,B31
14,binds,B32
15,binds,B33
16,binds,B34
17,binds,B35
